Assay [1] addresses DOT1L Site 1 peptide, fluorescently tagged (UniProt Q8TEK3). The assay can be described thus: fluorescence polarisation. (Polarisation of emitted light reports the rotation of a fluorescent probe.)
Assay [2] concerns the target DOT1L Site 2 peptide, fluorescently tagged (UniProt Q8TEK3). The assay can be described thus: fluorescence polarisation.
Assay [3] has as its target T1, DOT1L repeat motif (Sites 2 and 3, aa. 863–900) (UniProt Q8TEK3 863-900).
T1 chain (looked up): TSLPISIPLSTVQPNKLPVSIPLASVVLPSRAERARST
The experiment in a line: SEC. On the technique in general: Size exclusion chromatography separates by hydrodynamic size, large species first.

A value given as a limit tells only on which side of the number the result lay.

Experimental findings from paper PMC4426023 (Cell reports, 2015) are described below.

Chain of DOT1L Site 1 peptide, fluorescently tagged (Q8TEK3 628-653): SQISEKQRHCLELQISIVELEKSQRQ

A word on the Kd: it is the constant that tells how readily two partners part at equilibrium. Read a high Kd as lower affinity. In assay [1], MBP-AF9 AHD (WT) (domain or fragment) had a Kd above 2 µM. Besides, in assay [2], the fold weaker affinity than DOT1L (Site 3) worked out at 17 fold.

B1: AF9 ANC1 homology domain (aa. 499–568) (domain or fragment, UniProt P42568 499-568, looked up)
chain: CDKAYLDELVELHRRLMTLRERHILQQIVNLIEETGHFHITNTTFDFDLCSLDKTTVRKLQSYLETSGTS
The stoichiometry N is the number of molecules, sites or subunits per partner or assembly. On to B1, for which the “stoichiometry N” value in assay [3] was determined as 2.
